From PMC6925387 (Life Science Alliance, 2019)

T1: Hendra virus attachment glycoprotein (HeV-G), HA-tagged, expressed on the cell surface (Hendra virus, UniProt O89343 1-604)
T1 construct: also called HNV-G; G of HeVpp; not shown: HA, C-terminal, kept
T1 sequence: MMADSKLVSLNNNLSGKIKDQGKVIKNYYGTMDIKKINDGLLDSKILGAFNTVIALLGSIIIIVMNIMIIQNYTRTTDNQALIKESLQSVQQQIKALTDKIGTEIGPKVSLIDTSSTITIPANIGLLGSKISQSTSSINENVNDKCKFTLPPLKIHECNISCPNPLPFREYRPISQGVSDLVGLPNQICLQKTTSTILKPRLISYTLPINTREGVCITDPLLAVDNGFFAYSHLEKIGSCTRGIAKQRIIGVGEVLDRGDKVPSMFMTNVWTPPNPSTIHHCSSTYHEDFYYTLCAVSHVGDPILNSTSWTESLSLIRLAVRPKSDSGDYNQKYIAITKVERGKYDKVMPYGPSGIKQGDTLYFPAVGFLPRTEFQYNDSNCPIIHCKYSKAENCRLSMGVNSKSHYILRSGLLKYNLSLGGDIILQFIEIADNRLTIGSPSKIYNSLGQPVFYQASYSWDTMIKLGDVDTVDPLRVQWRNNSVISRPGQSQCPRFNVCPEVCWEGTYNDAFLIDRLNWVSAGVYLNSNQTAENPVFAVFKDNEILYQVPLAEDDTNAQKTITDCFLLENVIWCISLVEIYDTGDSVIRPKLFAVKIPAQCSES

T2: Nipah virus attachment glycoprotein (NiV-G), HA-tagged, expressed on the cell surface (Nipah virus, UniProt Q9IH62 1-602)
T2 construct: also called HNV-G; G of NiVpp
T2 sequence: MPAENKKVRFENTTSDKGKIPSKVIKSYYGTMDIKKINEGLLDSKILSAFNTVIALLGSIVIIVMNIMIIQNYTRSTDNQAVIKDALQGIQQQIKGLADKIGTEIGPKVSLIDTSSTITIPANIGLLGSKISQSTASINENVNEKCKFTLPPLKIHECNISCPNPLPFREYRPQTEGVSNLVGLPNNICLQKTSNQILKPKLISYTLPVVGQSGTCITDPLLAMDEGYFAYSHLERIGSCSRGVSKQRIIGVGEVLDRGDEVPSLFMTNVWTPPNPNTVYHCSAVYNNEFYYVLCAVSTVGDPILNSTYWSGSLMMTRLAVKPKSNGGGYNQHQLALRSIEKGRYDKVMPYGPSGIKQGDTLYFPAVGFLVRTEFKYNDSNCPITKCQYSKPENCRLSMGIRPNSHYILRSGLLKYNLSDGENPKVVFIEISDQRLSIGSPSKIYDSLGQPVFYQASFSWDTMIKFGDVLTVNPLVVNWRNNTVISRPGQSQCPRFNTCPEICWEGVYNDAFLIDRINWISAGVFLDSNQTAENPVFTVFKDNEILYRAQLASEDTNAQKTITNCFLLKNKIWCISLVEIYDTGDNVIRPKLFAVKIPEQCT

T3: CedV-G receptor-binding six-bladed β-propeller domain (residues 209–622) (Cedar virus, UniProt J7H333 209-622, high-mannose N-linked glycans (expression in the presence of kifunensine))
T3 sequence: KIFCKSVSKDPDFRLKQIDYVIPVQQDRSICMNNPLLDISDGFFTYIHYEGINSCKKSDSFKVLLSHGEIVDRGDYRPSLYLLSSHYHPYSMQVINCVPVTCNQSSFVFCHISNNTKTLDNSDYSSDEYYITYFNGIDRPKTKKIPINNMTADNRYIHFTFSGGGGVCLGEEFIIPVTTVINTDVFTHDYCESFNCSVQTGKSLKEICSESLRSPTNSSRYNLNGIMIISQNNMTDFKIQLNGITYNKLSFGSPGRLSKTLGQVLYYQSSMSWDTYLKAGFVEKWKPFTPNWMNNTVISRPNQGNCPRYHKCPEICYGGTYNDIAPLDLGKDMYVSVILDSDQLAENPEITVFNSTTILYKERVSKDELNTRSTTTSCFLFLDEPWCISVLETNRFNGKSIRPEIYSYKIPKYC

T4: Ghana virus attachment glycoprotein (GhV-G), HA-tagged, expressed on the cell surface (Ghana virus, UniProt I0E093 1-632)
T4 construct: also called Ghanaian bat henipavirus G; HNV-G; not shown: HA, C-terminal, kept
T4 sequence: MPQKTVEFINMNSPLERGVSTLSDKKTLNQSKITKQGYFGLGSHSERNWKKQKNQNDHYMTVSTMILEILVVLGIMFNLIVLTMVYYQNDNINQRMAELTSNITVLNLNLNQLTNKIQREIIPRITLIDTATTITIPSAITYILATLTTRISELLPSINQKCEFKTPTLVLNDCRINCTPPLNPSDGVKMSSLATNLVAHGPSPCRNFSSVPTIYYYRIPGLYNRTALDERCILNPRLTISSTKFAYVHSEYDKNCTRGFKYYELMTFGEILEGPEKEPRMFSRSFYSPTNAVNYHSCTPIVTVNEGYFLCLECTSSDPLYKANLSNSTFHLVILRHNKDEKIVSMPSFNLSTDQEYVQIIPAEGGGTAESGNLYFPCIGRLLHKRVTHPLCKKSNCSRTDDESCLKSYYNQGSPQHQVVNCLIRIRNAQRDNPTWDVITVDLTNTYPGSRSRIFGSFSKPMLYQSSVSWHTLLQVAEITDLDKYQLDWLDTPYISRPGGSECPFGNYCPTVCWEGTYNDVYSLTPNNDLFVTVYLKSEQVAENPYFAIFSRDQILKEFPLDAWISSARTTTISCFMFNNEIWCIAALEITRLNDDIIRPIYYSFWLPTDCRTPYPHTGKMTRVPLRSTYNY

B1: Soluble human ephrin-B3–Fc (Fc fusion)
chain: LSLEPVYWNSANKRFQAEGGYVLYPQIGDRLDLLCPRARPPGPHSSPNYEFYKLYLVGGAQGRRCEAPPAPNLLLTCDRPDLDLRFTIKFQEYSPNLWGHEFRSHHDYYIIATSDGTREGLESLQGGVCLTRGMKVLLRVGQSPRGGAVPRKPVSEMPMERDRGAAHSLEPGKENLPGDPTSNATSRGAEGPLPPPSMP
notes: also called sEphrin-B3–Fc; ephrin-B–Fc; source: bought: R&D Systems
B2: Human ephrin-B1 N-terminal extracellular domain (residues 29–167) (domain or fragment)
chain: AKNLEPVSWSSLNPKFLSGKGLVIYPKIGDKLDIICPRAEAGRPYEYYKLYLVRPEQAAACSTVLDPNVLVTCNRPEQEIRFTIKFQEFSPNYMGLEFKKHHDYYITSTSNGSLEGLENREGGVCRTRTMKIIMKVGQD
modifications: high-mannose N-linked glycans (expression in the presence of kifunensine)
notes: also called extracellular β-barrel domain of human ephrin-B1; ephrin-B1 ectodomain
B3: Soluble human ephrin-B2–Fc (Fc fusion)
chain: IVLEPIYWNSSNSKFLPGQGLVLYPQIGDKLDIICPKVDSKTVGQYEYYKVYMVDKDQADRCTIKKENTPLLNCAKPDQDIKFTIKFQEFSPNLWGLEFQKNKDYYIISTSNGSLEGLDNQEGGVCQTRAMKILMKVGQDASSAGSTRNKDPTRRPELEAGTNGRSSTTSPFVKPNPGSSTDGNSAGHSGNNILGSEVALFA
notes: also called sEphrin-B2–Fc; ephrin-B–Fc; source: bought: R&D Systems

Legend:
[1] = target: Cedar virus attachment glycoprotein (CedV-G), HA-tagged, expressed on the cell surface (Cedar virus); assay: flow cytometry on cells
[2] = target: T1, Hendra virus attachment glycoprotein …; assay: flow cytometry on cells; details: one partner purified
[3] = target: T2, Nipah virus attachment glycoprotein …; assay: flow cytometry on cells; details: one partner purified
[4] = target: T3, CedV-G receptor-binding six-bladed …; assay: crystal structure; details: both partners purified
[5] = target: T4, Ghana virus attachment glycoprotein …; assay: flow cytometry on cells; details: one partner purified

Molecule | Kd [1] | Kd [2] | Kd [3] | other results
Soluble human ephrin-B2–Fc (from UniProt P52799) (Fc fusion) | 2.3 nM | – | – | –
Soluble human ephrin-B1–Fc (from UniProt P98172) (Fc fusion) | 4 nM | – | – | –
B1 | – | 5.3 nM | 2 nM | –
B2 | – | – | – | stoichiometry N [4]: 1
B3 | – | 0.86 nM | 1.4 nM | Kd [5]: 0.82 nM
